# Test results published in US20240279281A1, “Peptide Inhibitors of Interleukin-23 Receptor” (Janssen Pharmaceutica NV, priority 2023, published 2024).
# Starred links: 1 amine or outer side, 2 acyl side, 3 side chain; linkers in the order of their positions; H or OH if unused. Positions of bridges follow the written chain, without caps; N, C: chain ends. Non-standard residues stand in square brackets, D forms with d. No end group written: not given here. X1 = 3‑(7-(3-acetamidophenyl)-1H-indol-3-yl)‑2‑aminopropanoic acid, CC(=O)Nc1cccc(-c2cccc3c(CC(N[*:1])C(=O)[*:2])c[nH]c23)c1; X3 = 4‑(2-(4-(2-amino-2-carboxyethyl)phenoxy)ethyl)‑4‑methylmorpholin‑4‑ium, C[N+]1(CCOc2ccc(CC(N[*:1])C(=O)[*:2])cc2)CCOCC1; X10 = 2‑amino‑3‑(4-(2-guanidinoethoxy)phenyl)propanoic acid, N=C(N)NCCOc1ccc(CC(N[*:1])C(=O)[*:2])cc1; Trp(7-(3-AcNH-Ph)) = CC(=O)Nc1cccc(-c2cccc3c(C[C@H](N)C(=O)O)c[nH]c23)c1; N‑methyl‑N‑acetyllysine = N-methyl-N-acetyllysine; 2Nal(6-OH) = N[C@@H](Cc1ccc2cc(O)ccc2c1)C(=O)O; Trp(7-Me) = Cc1cccc2c(C[C@H](N)C(=O)O)c[nH]c12; dLys(Me3) = C[N+](C)(C)CCCC[C@@H](N)C(=O)O; AEF = NCCOc1ccc(C[C@H](N)C(=O)O)cc1; αMeF = C[C@](N)(Cc1ccccc1)C(=O)O; 3Pal = N[C@@H](Cc1cccnc1)C(=O)O; d(hLys) = NCCCCC[C@@H](N)C(=O)O; Pen = CC(C)(S)[C@H](N)C(=O)O; αMeC = C[C@](N)(CS)C(=O)O; Thp = NC1(C(=O)O)CCOCC1; Abu = CC[C@H](N)C(=O)O; Ahp = NCCCCCCC(=O)O; Sar = CNCC(=O)O
# T1: interleukin-23 receptor (IL-23R), Q5VWK5
# T1 chain: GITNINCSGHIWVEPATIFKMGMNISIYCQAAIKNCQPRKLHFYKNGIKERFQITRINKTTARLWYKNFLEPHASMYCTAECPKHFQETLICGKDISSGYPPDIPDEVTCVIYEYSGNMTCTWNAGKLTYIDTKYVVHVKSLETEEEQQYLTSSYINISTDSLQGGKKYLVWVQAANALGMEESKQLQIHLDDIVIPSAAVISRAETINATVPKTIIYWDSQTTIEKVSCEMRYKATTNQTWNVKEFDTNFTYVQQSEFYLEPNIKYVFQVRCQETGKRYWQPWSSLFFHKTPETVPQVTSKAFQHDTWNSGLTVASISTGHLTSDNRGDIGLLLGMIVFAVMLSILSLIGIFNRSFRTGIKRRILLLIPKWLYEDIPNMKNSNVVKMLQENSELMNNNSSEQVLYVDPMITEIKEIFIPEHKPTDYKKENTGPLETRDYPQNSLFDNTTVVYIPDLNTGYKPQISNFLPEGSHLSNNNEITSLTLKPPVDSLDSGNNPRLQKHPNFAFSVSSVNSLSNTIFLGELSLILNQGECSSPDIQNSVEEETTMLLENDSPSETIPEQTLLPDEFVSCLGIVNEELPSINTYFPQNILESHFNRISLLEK
# Target: T1, interleukin-23 receptor (IL-23R), Q5VWK5
# Assay: cell-based or functional assay
Binder,IL23R Reporter Assay IC50 [µM],PBMC pSTAT3 IC50 [nM]
"[dLys(Me3)][Pen]NT[Trp(7-Me)]K(Ac)[Pen][5‑(4-(2-amino-2-carboxyethyl)phenoxy)‑N,N,N‑trimethylpentan‑1‑aminium][2Nal(6-OH)][Thp]EN[3Pal][Sar] (not fully specified (bridges); ends and bridges not checked) [SEQ ID NO: 67]",< 0.01,< 0.1
[Ahp][Pen]NT[Trp(7-Me)]K(Ac)[Pen][2‑amino‑3‑(4-(2-aminoethoxy)phenyl)propanoic acid][2‑amino‑3‑(6-hydroxynaphthalen-2-yl)propanoic acid][Thp]EN[3Pal][Sar] (disulfide 2-7 (inferred); ends not checked) [SEQ ID NO: 447],> 0.1,< 1
[dLys(Me3)]CNT[Trp(7-Me)]K(Ac)[αMeC][2‑amino‑3‑(4-(2-aminoethoxy)phenyl)propanoic acid][2‑amino‑3‑(6-hydroxynaphthalen-2-yl)propanoic acid][Thp]EN[3Pal][Sar] (ends and bridges not checked) [SEQ ID NO: 8],< 0.01,< 0.01
[Pen]NT[Trp(7-(3-AcNH-Ph))]K(Ac)[Pen][X3][2Nal(6-OH)][Thp][N‑methyl‑N‑acetyllysine]NH[Sar] (disulfide 1-6 (inferred); ends not checked) [SEQ ID NO: 62],< 0.01,< 1
"R[Pen]NT[Trp(7-Me)]K(Ac)[Pen][5‑(4-(2-amino-2-carboxyethyl)phenoxy)‑N,N,N‑trimethylpentan‑1‑aminium][2Nal(6-OH)][Thp]K(Ac)N[3Pal][Sar] (disulfide 2-7 (inferred); ends not checked) [SEQ ID NO: 58]",< 0.01,< 0.1
[Pen]NT[X1]K(Ac)[Pen][X10][2‑amino‑3‑(6-hydroxynaphthalen-2-yl)propanoic acid][Thp]EN[3Pal][Sar] (ends and bridges not checked) [SEQ ID NO: 9],< 0.01,> 1
R[Pen]NT[Trp(7-Me)]K(Ac)[Pen][2‑amino‑3‑(4-(2-aminoethoxy)phenyl)propanoic acid][2‑amino‑3‑(5-methylnaphthalen-2-yl)propanoic acid][Thp]EN[αMeF] (disulfide 2-7 (inferred); ends not checked) [SEQ ID NO: 445],> 0.1,> 1
R[Abu]NTWK(Ac)[αMeC][X10][2Nal(6-OH)][Thp]K(Ac)N[3Pal][Sar] (ends and bridges not checked) [SEQ ID NO: 7],< 0.01,< 0.1
[Pen]NT[Trp(7-Me)]K(Ac)[Pen][X3][2Nal(6-OH)][Thp]EN[3Pal][Sar] (disulfide 1-6 (inferred); ends not checked) [SEQ ID NO: 56],< 0.01,< 0.01
R[Pen]NT[Trp(7-(3-AcNH-Ph))]K(Ac)[Pen]Y[2Nal(6-OH)][Thp]EN[3Pal][Sar] (disulfide 2-7 (inferred); ends not checked) [SEQ ID NO: 65],< 0.01,< 1
R[Pen]NT[Trp(7-(3-AcNH-Ph))]K(Ac)[Pen][X3][2Nal(6-OH)][Thp]EN[Thp] (disulfide 2-7 (inferred); ends not checked) [SEQ ID NO: 110],–,< 1
[Pen]NT[Trp(7-(3-AcNH-Ph))]K(Ac)[Pen][AEF][2Nal(6-OH)][Thp]EN[3Pal][Sar] (not fully specified (bridges); ends and bridges not checked) [SEQ ID NO: 69],< 0.01,< 0.01
"R[Pen]NT[Trp(7-Me)]K(Ac)[Pen][AEF][2Nal(6-OH)][Thp]EN[3Pal][Sar]K (disulfide 2-7 (inferred); ends not checked; also: K15: lipidated lysine, lipid not given here) [SEQ ID NO: 116]",–,< 1
"[Pen]NT[Trp(7-Me)]K[Pen][AEF][2Nal(6-OH)][Thp]K(Ac)N[3Pal][Sar] (disulfide 1-6 (inferred); not fully specified (residue 5); ends not checked; also: K5: lipidated lysine, lipid not given here) [SEQ ID NO: 96]",–,< 0.1
R[Pen]NT[Trp(7-(3-AcNH-Ph))]K(Ac)[Pen][X3][2Nal(6-OH)][Thp]ENH[Sar] (disulfide 2-7 (inferred); ends not checked) [SEQ ID NO: 64],–,< 1
"K[Pen]NT[Trp(7-Me)]K(Ac)[Pen][AEF][2Nal(6-OH)][Thp]EN[3Pal][Sar] (disulfide 2-7 (inferred); ends not checked; also: K1: lipidated lysine, lipid not given here) [SEQ ID NO: 126]",–,< 1
"[d(hLys)](Me3)[Pen]NT[Trp(7-Me)]K[Pen][AEF][2Nal(6-OH)][Thp]K(Ac)N[3Pal][Sar] (disulfide 2-7 (inferred); ends not checked; also: K6: lipidated lysine, lipid not given here) [SEQ ID NO: 119]",–,< 1
R[Abu]NT[Trp(7-(3-AcNH-Ph))]K(Ac)[αMeC][AEF][2Nal(6-OH)][Thp]EN[3Pal][Sar] (ends and bridges not checked) [SEQ ID NO: 6],< 0.01,< 0.1
R[Pen]NTWK(Ac)[Pen][AEF][2Nal(6-OH)][Thp]EN[3Pal][Sar] (not fully specified (bridges); ends and bridges not checked) [SEQ ID NO: 74],< 0.01,< 0.1
R[Pen]NT[Trp(7-Me)]K(Ac)[Pen][2‑amino‑3‑(4-(2-aminoethoxy)phenyl)propanoic acid][2‑amino‑3‑(6-hydroxynaphthalen-2-yl)propanoic acid][Thp]EN[2‑amino‑3‑(5-carbamoylpyridin-3-yl)propanoic acid][Sar] (disulfide 2-7 (inferred); ends not checked) [SEQ ID NO: 441],< 0.01,< 0.1
R[Pen]NT[Trp(7-Me)]K(Ac)[Pen][AEF][2Nal(6-OH)][Thp]ENH[Sar] (disulfide 2-7 (inferred); ends not checked) [SEQ ID NO: 57],–,< 1
"[Pen]NT[Trp(7-Me)]K(Ac)[Pen][5‑(4-(2-amino-2-carboxyethyl)phenoxy)‑N,N,N‑trimethylpentan‑1‑aminium][2Nal(6-OH)][Thp]EN[3Pal][Sar] (not fully specified (bridges); ends and bridges not checked) [SEQ ID NO: 79]",< 0.01,< 0.01
R[Pen]NT[Trp(7-Me)]K(Ac)[Pen][X3][2Nal(6-OH)][Thp]EN[3Pal][Sar] (not fully specified (bridges); ends and bridges not checked) [SEQ ID NO: 77],< 0.01,< 0.01
"[Pen]NT[Trp(7-(3-AcNH-Ph))]K(Ac)[Pen][5‑(4-(2-amino-2-carboxyethyl)phenoxy)‑N,N,N‑trimethylpentan‑1‑aminium][2Nal(6-OH)][Thp]EN[3Pal][Sar] (disulfide 1-6 (inferred); ends not checked) [SEQ ID NO: 63]",< 0.01,< 0.1
"K[Pen]NT[Trp(7-Me)]K(Ac)[Pen][AEF][2Nal(6-OH)][Thp]K(Ac)N[3Pal][Sar] (disulfide 2-7 (inferred); ends not checked; also: K1: lipidated lysine, lipid not given here) [SEQ ID NO: 118]",–,< 1
